The text below walks through data of paper PMC7020754.

The target of the data set is T1, Rv0023 (XRE family transcription regulator) (Mycobacterium tuberculosis, UniProt P9WMI3 1-256).
T1 sequence: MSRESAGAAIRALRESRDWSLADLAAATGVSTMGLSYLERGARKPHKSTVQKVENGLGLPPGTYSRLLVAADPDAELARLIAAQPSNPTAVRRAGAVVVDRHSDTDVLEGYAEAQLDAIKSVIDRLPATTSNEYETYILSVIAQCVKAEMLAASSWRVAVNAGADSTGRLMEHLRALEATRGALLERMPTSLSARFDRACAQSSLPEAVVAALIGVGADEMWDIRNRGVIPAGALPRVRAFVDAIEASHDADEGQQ
The experiment in a line: EMSA; 8 pmol protein. The conditions noted are these: protein: recombinant; tags: His (implied by Ni-NTA purification; pET23a, also printed pET21b); chain copies: 2; label: 32P; blunt. A general note: In EMSA bound probe runs differently from free probe, usually more slowly.

B1: OL1M (dsDNA)
DNA 1: CACCCCTTATGTAGAGACGTGTGTATCGCGATTCTCTTGC
DNA 2: GCAAGAGAATCGCGATACACACGTCTCTACATAAGGGGTG
Take B1: the binding result was “no binding”.

B2: OL3M (dsDNA)
DNA 1: AGAGCCCGCCACAGACAGAGACGCGTGTGCCTATGTTTCG
DNA 2: CGAAACATAGGCACACGCGTCTCTGTCTGTGGCGGGCTCT
Take B2: the binding result was “no binding”.
